In the DeepSol protein solubility set:

Assay: soluble on expression in E. coli; label from the status in PepcDB or PDB records

For “MAHHHHHHMTSTTQPKWTRLPIRTRPHRNPLAENSDNHPDCPAELQEQCTTLFPGMDNPVITLVDVGCAFGGMLFSLAPDFPDMCMLGLEIRPKVVEFAQNKVMKLREGAATDGTSHHYRNVWFEQLNVMKFGSNCFNKGQLQALFFCYPDPHWKRKNVRRRIISPGLVQEYAYWLKVGGFLFTVSDVEELERWMVTCLDGCPLFRQLSQEELAGNEMVRKMLDYAANSSEDAQRTTRKGLQKHYAVHVRVP”, the “soluble on expression in E. coli” value was “not soluble”.

For “MLVSKSNGFNASAVLGSGSYNENKSSKHMELLAHSILKLICKEAASETYRGALETLQKMMSECIYQEGNAFVIMGAGEQLKRIKYEVGENNLKVFNVHFNNNHELVSSGEPDVICLSKQVWENLLIKLKLENNENVFSETKKLSNKNNADQFFECAKRNE”, the “soluble on expression in E. coli” value was “not soluble”.

For “AMAKGVGVSNEKLDAVMRVVSEESGIALEELTDDSNFADMGIDSLSSMVIGSRFREDLGLDLGPEFSLFIDCTTVRALKDFMLGSGDAG”, the “soluble on expression in E. coli” value was “soluble”.

In the case of “MTAQKMSAQEIIAFIGNAEKKTNVKVTFEGELATAVPSSVTKLGNVLFGDWKDIEPLLANLTENKDYVVEQDGRNSAVPLLDK”, the “soluble on expression in E. coli” value is reported as “not soluble”.

With “MSIQHFRVALIPFFAAFCLPVFAHPETLVKVKDAEDQLGARVGYIELDLNSGKILESFRPEERFPMMSTFKVLLCGAVLSRIDAGQEQLGRRIHYSQNDLVEYSPVTEKHLTDGMTVRELCSAAITMSDNTAANLLLTTIGGPKELTAFLHNMGDHVTRLDRWEPELNEAIPNDERDTTMPVAMATTLRKLLTGELLTLASRQQLIDWMEADKVAGPLLRSALPAGWFIADKSGAGERGSRGIIAALGPDGKPSRIVVIYTTGSQATMDERNRQIAEIGASLIKHW” the “soluble on expression in E. coli” value was “soluble”.

For “AKIDNAVLPEGSLVLVTGANGFVASHVVEQLLEHGYKVRGTARSASKLANLQKRWDAKYPGRFETAVVEDMLKQGAYDEVIKGAAGVAHIASVVSFSNKYDEVVTPAIGGTLNALRAAAATPSVKRFVLTSSTVSALIPKPNVEGIYLDEKSWNLESIDKAKTLPESDPQKSLWVYAASKTEAELAAWKFMDENKPHFTLNAVLPNYTIGTIFDPETQSGSTSGWMMSLFNGEVSPALALMPPQYYVSAVDIGLLHLGCLVLPQIERRRVYGTAGTFDWNTVLATFRKLYPSKTFPADFPDQGQDLSKFDTAPSLEILKSLGRPGWRSIEESIKDLVGSETA”, the “soluble on expression in E. coli” value was “soluble”.

In the case of “MVSPILANIALNGIESIHRSKAKGQIIEPSVRYADDMVIILKPKDNAIEILERISEFLRKRGMQVSQKKTKITAATDGFDFLGWHFKVQKNGKFKSTPSVDNFKAFRKKVKHIVNNSNYGSIVKAQKLSPIVRGWRNYHKFCKMDGSKHSLWFLNHRTYTVFTKESKHTRQSSEKLIKKAFPLVPNSENKHVMVQGIKSPYDGNLTCWSKRNSKLYDGHTSKALTKQNHKCASCGLKFIGEERVHLHHRDGNHDNWKPNNLEALHESCHDYRHMSKTERLEHHHHHH”, the “soluble on expression in E. coli” value is reported as “not soluble”.

In the case of “MAELRVLVAVKRVIDYAVKIRVKPDRTGVVTDGVKHSMNPFCEIAVEEAVRLKEKKLVKEVIAVSCGPAQCQETIRTALAMGADRGIHVEVPPAEAERLGPLQVARVLAKLAEKEKVDLVLLGKQAIDDDCNQTGQMTAGFLDWPQGTFASQVTLEGDKLKVERAIDGGLETLRLKLPAVVTADLRLNEPRYATLPNIMKAKKKKIEVIKPGDLGVDLTSKLSVISVEDPPQRTAGVKVETTEDLVAKLKEIGRI”, the “soluble on expression in E. coli” value is reported as “soluble”.

In the case of “VINESEKEMIDSIFEFDDRIAEEVMTPRTEVYLINIDTPLNKYVDELLEIKYSRVPVFEGDSDNIIGILYIKDFIVEARKVGFENVNIKNIIHSPYFVPERKNINELFKELQAAKKHMAVLIDEYGGFSGIVTIEDLIEEVMGNISDE”, the “soluble on expression in E. coli” value is reported as “soluble”.

In the case of “ARVDQTPQRITKETGESLTINCVVRDSRCVLSTGYWYRKPPGSRNEESISDGGRYVETVNRGSKSFSLRINDLTVKDSGTYRCKPESRYGSYDAVCAALNDQYGGGTVVTVNAAAHHHHHH”, the “soluble on expression in E. coli” value is reported as “soluble”.

With “MEVQFKNTRKGYYLNSERIELHKGDVVAVEANPGHDIGTVTLTGKLVKLQMRKHRYNTNNGEPFKIYRIAKQGDLDKYCEAKAREYDTMIQSRQISAELNLDMKIGDVEYQGDGNKAIFYYIADERVDFRQLIRVLAETFHIRVEMKQIGARQEAGRIGGIGPCGRQLCCSAWKMNFVSVNTSAARYQDLALNPQKLTGLCAKLKCCLNYEVDAYVEARKKMPSPEIVLETKESAYHYFKADVFRREVSYSTVPNAPVNLTTISARRAFEVISQNKQGFKPVSLEYDDKKQSSGHELSDILTDNSLTRFDDALSRRRRRNGNGNRDFSDREKAGEPHRTPDSIQPTPRVRSSSRMPSREKSPRPEGGDRRENMRERSRGDARFARPYTNEGGSERMEGARRVVGSGRRPPRQSTPRQEDRQGERKEELEHHHHHH” the “soluble on expression in E. coli” value was “soluble”.

With “MTTSTKLVELLYQLEAQLQKHELWQQTMPSPEALQSVEPFAIDTLDPHEWLQWIFIARMHALVESSQPLPRGFSIEPYFAEVWKQEPQYAELLNTIRTIDELCKLEHHHHHH” the “soluble on expression in E. coli” value was “not soluble”.

With “MSISWSMSRNMFKLAHISDVHLGPLPRLSIQELFSKRITGFVNWHRNRRKHLFASTLDLLLDDIRTHRADHLAVTGDLVNLASGIEIRAAAAWLRALGDPADTSVVPGNHDAYVPGAYEKSMRAWYDYVRGDLAPPQWQEDRRIFPYLRVRDKVAIVGCSTAVATPPFAASGFFSARQARDTVNMLRAAGEAGLFRVVMIHHPPIRGATAFHKRMIGIRRFAAVISTGGAELVLHGHTHLNTLHWLRGQVQPVPVVGIASASQGPGSIKPPAAYNLFSIDGAPGAWELTGERFSLNRTGDAMMPESVDIFAPLEHHHHHH” the “soluble on expression in E. coli” value was “not soluble”.

In the case of “MQPEEGTGWLLELLSEVQLQQYFLRLRDDLNVTRLSHFEYVKNEDLEKIGMGRPGQRRLWEAVKRRKALCKRKSWMSKVFSGKRLEAEFPPHHSQSTFRKTSPAPGGPAGEGPLQSLTCLIGEKDLRLLEKLGDGSFGVVRRGEWDAPSGKTVSVAVKCLKPDVLSQPEAMDDFIREVNAMHSLDHRNLIRLYGVVLTPPMKMVTELAPLGSLLDRLRKHQGHFLLGTLSRYAVQVAEGMGYLESKRFIHRDLAARNLLLATRDLVKIGDFGLMRALPQNDDHYVMQEHRKVPFAWCAPESLKTRTFSHASDTWMFGVTLWEMFTYGQEPWIGLNGSQILHKIDKEGERLPRPEDCPQDIYNVMVQCWAHKPEDRPTFVALRDFLLEAQPTDMRALQDFEEPDKLHIQMNDVITVIEGRAENYWWRGQNTRTLCVGPFPRNVVTSVAGLSAQDISQPLQNSFIHTGHGDSDPRHCWGFPDRIDELYLGNPMDPPDLLSVELSTSRPPQHLGGVKKPTYDPVSEDQDPLSSDFKRLGLRKPGLPRGLWLAKPSARVPGTKASRGSGAEVTLIDFGEEPVVPALRPCPPSLAQLAMDACSLLDETPPQSPTRALPRPLHPTPVVDWDARPLPPPPAYDDVAQDEDDFEICSINSTLVGAGVPAGPSQGQTNYAFVPEQARPPPPLEDNLFLPPQGGGKPPSSAQTAEIFQALQQECMRQLQAPGSPAPSPSPGGDDKPQVPPRVPIPPRPTRPHVQLSPAPPGEEETSQWPGPASPPRVPPREPLSPQGSRTPSPLVPPGSSPLPPRLSSSPGKTMPTTQSFASDPKYATPQVIQAPGAGGPCILPIVRDGKKVSSTHYYLLPERPSYLERYQRFLREAQSPEEPTPLPVPLLLPPPSTPAPAAPTATVRPMPQAALDPKANFSTNNSNPGARPPPPRATARLPQRGCPGDGPEAGRPADKIQMAMVHGVTTEECQAALQCHGWSVQRAAQYLKVEQLFGLGLRPRGECHKVLEMFDWNLEQAGCHLLGSWGPAHHKR”, the “soluble on expression in E. coli” value is reported as “not soluble”.

With “MSLDVTAKYELIGLMAYPIRHSLSPEMQNKALEKAGLPFTYMAFEVDNDSFPGAIEGLKALKMRGTGVSMPNKQLACEYVDELTPAAKLVGAINTIVNDDGYLRGYNTDGTGHIRAIKESGFDIKGKTMVLLGAGGASTAIGAQGAIEGLKEIKLFNRRDEFFDKALAFAQRVNENTDCVVTVTDLADQQAFAEALASADILTNGTKVGMKPLENESLVNDISLLHPGLLVTECVYNPHMTKLLQQAQQAGCKTIDGYGMLLWQGAEQFTLWTGKDFPLEYVKQVMGFGAEGGSHHHHHH” the “soluble on expression in E. coli” value was “soluble”.

In the case of “MRVEKAWFLADGAEAPEGLPEGGFREVALPHQWSLEGVEAEVGWYRLALPEAGPRRFLLSFGDYYQEAWLDGTYLGRHEGYFFPWVLELPKGKELFLRVSAPKEPLGVWPRFKRQIKGVFGQHDCRPGGTTARGQERGTGGLWGGVEVWAREEVALLGLAHRLFPRAGGWRLWVRLLVDAQRPFRERARLFLVPANFPGEALEREAVLEGEAGRAWREVVWDLPEMPLWEVWERGFPHLFRLEADLLGARLGVPLGFRTVEVDGEGWLLLNGKRLFLRGTNAIPTQWLAAYSEAMAQKDVALLKEANLNAVRVHAHVTHPAFYAACDREGVLVWQDFPLQWGYAPDEAFAQEALRQARAMVEVLGAHPSVYLWCAQNEPTHNRHALGPLLAAALRAADPTRPVKEASDFREHPYPGWYRGHYRDFLALPGAPLPSEFGAQALPRAELLRRVLGEAAWPPRWEVWAYHNFQPHETFRVARVEMGESLEEFVERSQDYQARLIEFAVHAYRRAKGKVVGYFQFMFVEPWEGITWAVLDVERVPKKGFFALKEASSPVLLSLVPYRERVEVGGPPCRRPGS”, the “soluble on expression in E. coli” value is reported as “soluble”.

For “MKKTTLAMSALALSLGLALSPLSATAAETSSSAMTAQQMPSLAPMLEKVMPSVVSINVEGSTTVNTPRMPRNFQQFFGDDSPFCQDGSPFQNSPFCQGGGNGGNGGQQQKFMALGSGVIIDAAKGYVVTNNHVVDNASVIKVQLSDGRKFDAKVVGKDPRSDIALIQIQNPKNLTAIKLADSDALRVGDYTVAIGNPFGLGETVTSGIVSALGRSGLNVENYENFIQTDAAINRGNSGGALVNLNGELIGINTAILAPDGGNIGIGFAIPSNMVKNLTSQMVEYGQVKRGELGIMGTELNSELAKAMKVDAQRGAFVSQVMPNSSAAKAGIKAGDVITSLNGKPISSFAALRAQVGTMPVGSKISLGLLREGKAITVNLELQQSSQSQVDSSTIFSGIEGAEMSNKGQDKGVVVSSVKANSPAAQIGLKKGDVIIGANQQPVKNIAELRKILDSKPSVLALNIQRGDSSIYLLMQ”, the “soluble on expression in E. coli” value was “not soluble”.

For “MTFTASSSSCAITESPVVVALDYHERDKALAFVDKIDPRDCRLKVGKEMFTLFGPQLVRDLQQRGFDVFLDLKFHDIPNTTARAVAAAADLGVWMVNVHASGGARMMAAARDALAPFSKDAPLLIAVTVLTSMETSDLHDLGVTLSPAEHAERLARLTQQCGLDGVVCSAQEAVRFKQAFGAAFKLVTPGIRPAGSEAGDQRRIMTPEQALSAGVDYMVIGRPVTQSVDPAQTLKDINASLKREA”, the “soluble on expression in E. coli” value was “not soluble”.

For “MSRTAKPQNGRRRFLRDVVRTAGGLAAVGVALGLQQQTARASGVRLRPPGALNENVFASACVRCGQCVQACPYDTLKLATLASGLSAGTPYFVARDIPCEMCEDIPCAKVCPSGALNKDIASIDDSRMGLAVLLDQENCLNFQGLRCDVCYRECPKIDEAITLELDRNMRTGKHARFLPTVHSDACTGCGKCEKVCVLEQPAIKVLPLSLAKGELGHHYRFGWLEGKDGKS”, the “soluble on expression in E. coli” value was “not soluble”.

With “MVNPFIKEAKEKMKRTLEKIEDELRKMRTGKPSPAILEEIKVDYYGVPTPVNQLATISISEERTLVIKPWDKSVLSLIEKAINASDLGLNPINDGNVIRLVFPSPTTEQREKWVKKAKEIVEEGKIAIRNIRREILKKIKEDQKEGLIPEDDAKRLENEIQKLTDEFIEKLDEVFEIKKEEIMEF” the “soluble on expression in E. coli” value was “soluble”.

With “MTQYVFEMGMTCNGCANAARKVLGKLGEDKIKIDDINVETKKITVTTDLPASDVLEALKKTGKEIKQLQ” the “soluble on expression in E. coli” value was “not soluble”.
